# Test: Single dose PK study of oral Adalimumab in comparison with intravenous administration
# Type: in vivo
# Conditions: beagle dogs; oral 15 mg in lyophilized liposomes with 1 mol-% cycR9 conjugate in enteric coated capsule vs 3 mg intravenous; comparison of AUC values, ELISA
# Method: Single dose PK study of oral Adalimumab (Humira™) in comparison with Adalimumab after intravenous administration. As animals, 2 beagle dogs were used. The oral dose of Adalimumab was 15 mg encapsulated in liposomes containing 1-mol% of the cycR9 conjugate described before. The liposomes were lyophilized and afterwards filled in an enteric coated capsule. The intravenous dose was 3 mg. The blood sampling time points for the oral administration were: 0 (pre-dose), 0:15, 0:30, 1:00, 2:00, 4:00, 8:00, 24:00, 48:00, 96:00 h p.a. The blood sampling time points for the intravenous administration were: 0 (pre-dose), 0:15, 0:30, 1:00, 2:00, 4:00, 8:00, 24:00, 48:00, 96:00 h p.a. All blood samples were analyzed by ELISA measurements (IDKmonitor® Adalimumab drug level ELISA, Immundiagnostik AG, Bensheim).
substance,measurement,value
Adalimumab,bioavailability after oral administration,3.55%

# — patent publication US20200022914A1, “LIPOSOMAL COMPOSITIONS AND SOLID ORAL DOSAGE FORMS COMPRISING THE SAME” (UNIVERSITÄT HEIDELBERG, priority 2017, published 2020)
